Assay results published in article PMC6736097 (Nucleic Acids Research, 2019).

B1: ILP1 split-YFP fusion for BiFC (ILP1-nYFP and ILP1-cYFP) (natural protein)
chain: MGSNRPKNFRRRGDDGGDEIDGKVATPSSKPTSTLSSSKPKTLSASAPKKKLLSFADDEEEEEDGAPRVTIKPKNGRDRVKSSSRLGVSGSSHRHSSTKERRPASSNVLPQAGSYSKEALLELQKNTRTLPYSRSSANAEPKVVLKGLIKPPQDHEQQSLKDVVKQVSDLDFDEEGEEEQHEDAFADQAAIIRAKKERMRQSRSAPAPDYISLDGGIVNHSAVEGVSDEDADFQGIFVGPRPQKDDKKGVFDFGDENPTAKETTTSSIYEDEDEEDKLWEEEQFKKGIGKRMDEGSHRTVTSNGIGVPLHSKQQTLPQQQPQMYAYHAGTPMPNVSVAPTIGPATSVDTLPMSQQAELAKKALKDNVKKLKESHAKTLSSLTKTDENLTASLMSITALESSLSAAGDKYVFMQKLRDFISVICDFMQNKGSLIEEIEDQMKELNEKHALSILERRIADNNDEMIELGAAVKAAMTVLNKHGSSSSVIAAATGAALAASTSIRQQMNQPVKLDEFGRDENLQKRREVEQRAAARQKRRARFENKRASAMEVDGPSLKIEGESSTDESDTETSAYKETRDSLLQCADKVFSDASEEYSQLSKVKARFERWKRDYSSTYRDAYMSLTVPSIFSPYVRLELLKWDPLHQDVDFFDMKWHGLLFDYGKPEDGDDFAPDDTDANLVPELVEKVAIPILHHQIVRCWDILSTRETRNAVAATSLVTNYVSASSEALAELFAAIRARLVEAIAAISVPTWDPLVLKAVPNTPQVAAYRFGTSVRLMRNICMWKDILALPVLENLALSDLLFGKVLPHVRSIASNIHDAVTRTERIVASLSGVWTGPSVTRTHSRPLQPLVDCTLTLRRILEKRLGSGLDDAETTGLARRLKRILVELHEHDHAREIVRTFNLKEAV

Legend:
[1] = target: B1; assay: split reporter
PRP43b-cYFP = PRP43b-cYFP (Arabidopsis thaliana, UniProt O22899 1-729); assay: split reporter
Sequence of PRP43b-cYFP (O22899 whole entry): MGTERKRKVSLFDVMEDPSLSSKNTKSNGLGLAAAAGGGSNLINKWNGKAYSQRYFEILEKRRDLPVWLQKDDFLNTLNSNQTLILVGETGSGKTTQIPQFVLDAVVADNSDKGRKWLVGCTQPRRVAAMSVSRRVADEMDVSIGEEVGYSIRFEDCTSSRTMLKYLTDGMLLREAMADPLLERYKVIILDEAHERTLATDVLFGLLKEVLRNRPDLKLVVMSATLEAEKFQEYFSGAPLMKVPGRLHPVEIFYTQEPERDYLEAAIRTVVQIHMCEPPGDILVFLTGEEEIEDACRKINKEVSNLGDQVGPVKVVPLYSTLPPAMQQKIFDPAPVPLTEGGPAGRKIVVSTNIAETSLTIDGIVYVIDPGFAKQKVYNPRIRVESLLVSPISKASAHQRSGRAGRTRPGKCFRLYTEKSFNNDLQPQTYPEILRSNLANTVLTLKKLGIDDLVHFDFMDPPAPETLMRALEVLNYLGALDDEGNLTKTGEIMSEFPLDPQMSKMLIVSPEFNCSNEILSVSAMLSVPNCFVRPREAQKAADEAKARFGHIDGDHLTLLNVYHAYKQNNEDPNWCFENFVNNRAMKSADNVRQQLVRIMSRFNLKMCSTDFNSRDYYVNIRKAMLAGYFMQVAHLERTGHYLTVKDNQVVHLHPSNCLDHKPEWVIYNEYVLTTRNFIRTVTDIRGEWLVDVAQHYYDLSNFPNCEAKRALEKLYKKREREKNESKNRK

| positive BiFC ratio (percent of protoplasts) [1] [%] | positive BiFC ratio (percent of protoplasts) (PRP43b-cYFP) [%] | Binder |
| --- | --- | --- |
| 41.4 | 14.7 | NTR1 split-YFP fusion for BiFC (NTR1-nYFP) (natural protein) not shown |
| – | 1.4 | B1 |
